Results from the supplement of paper PMC10567573.

B1: KRT33B (parent)
chain: YQSYFKTIEELQQKILCSKSENAR

Variants of: B1
Assay: protein stability index of a GFP-peptide fusion (GPS, HEK-293T) (PSI 1-6); higher = more stable
Conditions: c terminus: a fixed tail appended
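Further: lentivirally expressed fusions sorted by FACS into six bins by GFP to DsRed ratio, PSI derived from sequencing read proportions per bin multiplied by bin number.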

Which protein stability index does the source give for YQSYFKTIEELQLKILCSKSENAR here?
The protein stability index was 2.2.

For YQSYFKTIEELQMKILCSKSENAR, which protein stability index is on record?
The protein stability index was 1.4.

Which protein stability index does the source give for YQSYFKTIEELQDKILCSKSENAR here?
The protein stability index was 1.55.

For YQSYFKTIEELQWKILCSKSENAR, which protein stability index is on record?
The protein stability index was 2.6.

With YQSYFKTIEELQFKILCSKSENAR as the variant, how does the protein stability index read?
The protein stability index was 2.04.

For YQSYFKTIEELQRKILCSKSENAR, which protein stability index is on record?
Its protein stability index is 1.68.

With YQSYFKTIEELQEKILCSKSENAR as the variant, how does the protein stability index read?
Its protein stability index is 1.81.

For YQSYFQTIEELQQKILCSKSENAR, which protein stability index is on record?
The protein stability index was 1.64.

Which protein stability index does the source give for YQSYFETIEELQQKILCSKSENAR here?
The protein stability index was 1.93.

For YQSYFTTIEELQQKILCSKSENAR, which protein stability index is on record?
The protein stability index was 1.79.

For YQSYFGTIEELQQKILCSKSENAR, which protein stability index is on record?
The protein stability index was 1.5.

Which protein stability index does the source give for YQSYFRTIEELQQKILCSKSENAR here?
Its protein stability index is 1.11.

For YQSYFVTIEELQQKILCSKSENAR, which protein stability index is on record?
The protein stability index was 2.41.

Which protein stability index does the source give for YQSYFCTIEELQQKILCSKSENAR here?
Its protein stability index is 3.34.

For YQSYFPTIEELQQKILCSKSENAR, which protein stability index is on record?
The protein stability index was 2.74.

With YQSYFSTIEELQQKILCSKSENAR as the variant, how does the protein stability index read?
Its protein stability index is 2.59.

For YQSYFLTIEELQQKILCSKSENAR, which protein stability index is on record?
The protein stability index was 1.77.

Which protein stability index does the source give for YQSYFDTIEELQQKILCSKSENAR here?
Its protein stability index is 2.08.

With YQSYFNTIEELQQKILCSKSENAR as the variant, how does the protein stability index read?
Its protein stability index is 1.88.

For YQSYFYTIEELQQKILCSKSENAR, which protein stability index is on record?
Its protein stability index is 2.55.

For YQSYFMTIEELQQKILCSKSENAR, which protein stability index is on record?
The protein stability index was 1.8.

With YQSYFATIEELQQKILCSKSENAR as the variant, how does the protein stability index read?
The protein stability index was 1.43.

With YQSYFFTIEELQQKILCSKSENAR as the variant, how does the protein stability index read?
Its protein stability index is 2.25.

For YQSYFWTIEELQQKILCSKSENAR, which protein stability index is on record?
The protein stability index was 2.07.

With YQSYFHTIEELQQKILCSKSENAR as the variant, how does the protein stability index read?
The protein stability index was 1.62.

For YQSYFITIEELQQKILCSKSENAR, which protein stability index is on record?
Its protein stability index is 2.52.

Which protein stability index does the source give for YQSYQKTIEELQQKILCSKSENAR here?
The protein stability index was 2.78.

For YQSYTKTIEELQQKILCSKSENAR, which protein stability index is on record?
The protein stability index was 2.59.

For YQSYEKTIEELQQKILCSKSENAR, which protein stability index is on record?
Its protein stability index is 3.79.

Which protein stability index does the source give for YQSYPKTIEELQQKILCSKSENAR here?
Its protein stability index is 2.17.

For YQSYCKTIEELQQKILCSKSENAR, which protein stability index is on record?
Its protein stability index is 2.16.

For YQSYSKTIEELQQKILCSKSENAR, which protein stability index is on record?
Its protein stability index is 2.81.

With YQSYMKTIEELQQKILCSKSENAR as the variant, how does the protein stability index read?
Its protein stability index is 3.48.

With YQSYKKTIEELQQKILCSKSENAR as the variant, how does the protein stability index read?
The protein stability index was 2.38.

For YQSYYKTIEELQQKILCSKSENAR, which protein stability index is on record?
The protein stability index was 2.32.

With YQSYHKTIEELQQKILCSKSENAR as the variant, how does the protein stability index read?
Its protein stability index is 1.84.

With YQSYIKTIEELQQKILCSKSENAR as the variant, how does the protein stability index read?
Its protein stability index is 2.12.

With YQSYNKTIEELQQKILCSKSENAR as the variant, how does the protein stability index read?
Its protein stability index is 2.91.

Which protein stability index does the source give for YQSYVKTIEELQQKILCSKSENAR here?
Its protein stability index is 2.26.

Which protein stability index does the source give for YQSYWKTIEELQQKILCSKSENAR here?
Its protein stability index is 2.44.

For YQSYRKTIEELQQKILCSKSENAR, which protein stability index is on record?
Its protein stability index is 2.53.

For YQSYDKTIEELQQKILCSKSENAR, which protein stability index is on record?
Its protein stability index is 3.8.

For YQSYAKTIEELQQKILCSKSENAR, which protein stability index is on record?
Its protein stability index is 2.37.

For YQSYLKTIEELQQKILCSKSENAR, which protein stability index is on record?
Its protein stability index is 2.07.

For YQSYGKTIEELQQKILCSKSENAR, which protein stability index is on record?
The protein stability index was 2.92.

Which protein stability index does the source give for YQSYFKTIEMLQQKILCSKSENAR here?
Its protein stability index is 1.67.

For YQSYFKTIEDLQQKILCSKSENAR, which protein stability index is on record?
Its protein stability index is 2.36.

With YQSYFKTIENLQQKILCSKSENAR as the variant, how does the protein stability index read?
Its protein stability index is 2.1.

With YQSYFKTIEVLQQKILCSKSENAR as the variant, how does the protein stability index read?
Its protein stability index is 2.28.

Which protein stability index does the source give for YQSYFKTIEGLQQKILCSKSENAR here?
Its protein stability index is 2.6.

For YQSYFKTIETLQQKILCSKSENAR, which protein stability index is on record?
Its protein stability index is 1.87.

With YQSYFKTIERLQQKILCSKSENAR as the variant, how does the protein stability index read?
Its protein stability index is 1.89.

With YQSYFKTIESLQQKILCSKSENAR as the variant, how does the protein stability index read?
Its protein stability index is 1.65.

For YQSYFKTIEALQQKILCSKSENAR, which protein stability index is on record?
Its protein stability index is 2.02.

With YQSYFKTIELLQQKILCSKSENAR as the variant, how does the protein stability index read?
The protein stability index was 1.63.

With YQSYFKTIEPLQQKILCSKSENAR as the variant, how does the protein stability index read?
Its protein stability index is 2.39.

With YQSYFKTIEHLQQKILCSKSENAR as the variant, how does the protein stability index read?
The protein stability index was 1.65.

Which protein stability index does the source give for YQSYFKTIEYLQQKILCSKSENAR here?
The protein stability index was 2.52.

Which protein stability index does the source give for YQSYFKTIEQLQQKILCSKSENAR here?
Its protein stability index is 2.69.

With YQSYFKTIEFLQQKILCSKSENAR as the variant, how does the protein stability index read?
Its protein stability index is 2.13.

For YQSYFKTIEILQQKILCSKSENAR, which protein stability index is on record?
The protein stability index was 1.66.

Which protein stability index does the source give for YQSYFKTIEKLQQKILCSKSENAR here?
Its protein stability index is 2.44.

For YQSYFKTIEWLQQKILCSKSENAR, which protein stability index is on record?
Its protein stability index is 1.71.

Which protein stability index does the source give for YQSYFKTIECLQQKILCSKSENAR here?
Its protein stability index is 1.72.

For YQSYFKTIEELQQIILCSKSENAR, which protein stability index is on record?
Its protein stability index is 1.66.

With YQSYFKTIEELQQCILCSKSENAR as the variant, how does the protein stability index read?
The protein stability index was 2.14.

For YQSYFKTIEELQQFILCSKSENAR, which protein stability index is on record?
Its protein stability index is 2.02.

Which protein stability index does the source give for YQSYFKTIEELQQNILCSKSENAR here?
Its protein stability index is 1.7.

Which protein stability index does the source give for YQSYFKTIEELQQEILCSKSENAR here?
Its protein stability index is 1.82.

With YQSYFKTIEELQQDILCSKSENAR as the variant, how does the protein stability index read?
Its protein stability index is 1.68.

Which protein stability index does the source give for YQSYFKTIEELQQLILCSKSENAR here?
The protein stability index was 2.14.

With YQSYFKTIEELQQAILCSKSENAR as the variant, how does the protein stability index read?
The protein stability index was 1.53.

Which protein stability index does the source give for YQSYFKTIEELQQMILCSKSENAR here?
The protein stability index was 2.28.

Which protein stability index does the source give for YQSYFKTIEELQQGILCSKSENAR here?
The protein stability index was 1.25.

Which protein stability index does the source give for YQSYFKTIEELQQHILCSKSENAR here?
The protein stability index was 2.28.

For YQSYFKYIEELQQKILCSKSENAR, which protein stability index is on record?
Its protein stability index is 2.08.

With YQSYFKPIEELQQKILCSKSENAR as the variant, how does the protein stability index read?
The protein stability index was 1.85.

For YQSYFKEIEELQQKILCSKSENAR, which protein stability index is on record?
The protein stability index was 2.31.

For YQSYFKIIEELQQKILCSKSENAR, which protein stability index is on record?
Its protein stability index is 1.97.

With YQSYFKVIEELQQKILCSKSENAR as the variant, how does the protein stability index read?
Its protein stability index is 2.25.

For YQSYFKKIEELQQKILCSKSENAR, which protein stability index is on record?
Its protein stability index is 1.88.

Which protein stability index does the source give for YQSYFKMIEELQQKILCSKSENAR here?
Its protein stability index is 2.12.

Which protein stability index does the source give for YQSYFKGIEELQQKILCSKSENAR here?
The protein stability index was 1.8.

With YQSYFKDIEELQQKILCSKSENAR as the variant, how does the protein stability index read?
The protein stability index was 2.42.

For YQSYFKQIEELQQKILCSKSENAR, which protein stability index is on record?
Its protein stability index is 1.84.

Which protein stability index does the source give for YQSYFKNIEELQQKILCSKSENAR here?
The protein stability index was 2.23.

For YQSYFKSIEELQQKILCSKSENAR, which protein stability index is on record?
The protein stability index was 1.73.

With YQSYFKCIEELQQKILCSKSENAR as the variant, how does the protein stability index read?
The protein stability index was 2.1.

With YQSYFKLIEELQQKILCSKSENAR as the variant, how does the protein stability index read?
The protein stability index was 2.

For YQSYFKRIEELQQKILCSKSENAR, which protein stability index is on record?
Its protein stability index is 1.88.

Which protein stability index does the source give for YQSYFKAIEELQQKILCSKSENAR here?
Its protein stability index is 2.21.

For YQSYFKHIEELQQKILCSKSENAR, which protein stability index is on record?
The protein stability index was 2.31.

Which protein stability index does the source give for YQSYFKFIEELQQKILCSKSENAR here?
Its protein stability index is 2.11.

Which protein stability index does the source give for YQSYFKWIEELQQKILCSKSENAR here?
Its protein stability index is 1.8.
